Columns and labels:
[1] = tested on: Complement Component 3b (C3b) in vitreous humor of African Green Monkeys
[2] = tested on: CFI-HSA (human serum albumin fused to the N-terminal end of wild type CFI)

CFI-HSA (human serum albumin fused to the N-terminal end of wild type CFI)
ratio of C3b/iC3b in vitreous humor (chemiluminescent western blot, densitometry) [1]: showing a significant increase in cleavage in eyes receiveing a 1.0 mg injection of CFI-HSA compared to vehicle controls

recombinant furin
activation (cleavage of CFI-HSA into its activated form) [2]: more than 90% activation of the protein

Source: US20250177482
